Measurements as given in paper PMC6891901.

System: T1, KH9-OEP34 (CTP) (synthetic)
T1 sequence: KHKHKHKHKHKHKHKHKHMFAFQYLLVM
Assay: free peptide quantification
Conditions: in water; N/P 0.5-5.0; value stated as up to 64%; pDNA/CTP complexes formed in water, N/P 0.1-25, agarose gel EMSA; pH, salt and temperature not given in the material

## pPpsbA::Rluc
  binding signal (% of CTP bound (maximum)): 64
